Assay [1] concerns the target cyno IL13 (cynomolgus monkey) (UniProt Q0PW92). As to the kind of experiment: cell-based or functional assay.
For assay [2], the target named is human IL13 (human) (UniProt P35225). As to the kind of experiment: cell-based or functional assay.
The target is the same in assay [3]. As to the kind of experiment: SPR BIAcore, biotin-IL13 on SA chip, global fit.
For another assay, the target named is human IL13 R130Q (human) (UniProt P35225). As to the kind of experiment: Luminex competition, 80 pM biotin-IL13 R130Q binding to IL13Ra2-Fc beads.
human IL13 R130Q (human), sequence (P35225 35-146 limits assumed, stated change not applied): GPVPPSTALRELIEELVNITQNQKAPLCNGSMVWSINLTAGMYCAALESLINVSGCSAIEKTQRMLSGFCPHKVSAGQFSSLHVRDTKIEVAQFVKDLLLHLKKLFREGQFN

Where a chain is given by its changes, count along the chain named.

human IL13 (human), sequence (P35225 other isoform, or with tags, fused parts or gaps limits assumed): as the sequence (P35225 35-146 limits assumed, stated change not applied) above, with Q110R counted along it
cyno IL13 (cynomolgus monkey), sequence (Q0PW92 entry or part of it): as the sequence (P35225 35-146 limits assumed, stated change not applied) above, with G1S, R10K, M42V, S67N, H83R, L100V counted along it

B1: 7H3 (designed binder, part only; not given: N-cap, C-cap, His tag, part only)
chain, part: TDMYGSTPLHLAARHGHLEIVEVLLKYGADVNAFDFIGDTPLHLAAYRGHLEIVEVLLKYGVDVNADDHYGDTPLHLAASMGHLEIVEVLLKNGADVNA
As for B1, the Cyno IL13 STAT6 IC50 in assay [1] was determined as 0.388 nM. In the assay with human IL13 (human) [2], the STAT6 Phospho IC50 was found to be 0.0253 nM and the TARC expression IC50 worked out at 0.0696 nM. In the assay with human IL13 (human) [3], the Kd (usually the concentration at which binding is half-saturated) was 0.131 nM; the off-rate (koff) (usually the first-order rate constant of dissociation) stood at 0.00056 s⁻¹; the kon (in general, a measure of how fast the partners come together) amounted to 4.26e+06 M⁻¹ s⁻¹. Moreover, in the assay with human IL13 R130Q (human), the concentration for half-maximal inhibition (IC50) (usually the concentration that gives 50% inhibition) amounted to 0.0669 nM.

B2: 5D2 (designed binder, part only; not given: N-cap, C-cap, His tag, part only)
chain, part: B1 chain, part with T1K, M3L, Y4F, Y27N, F34E
With B2, the Cyno IL13 STAT6 IC50 in assay [1] came to 0.224 nM. Also, in the assay with human IL13 (human) [2], the STAT6 Phospho IC50 is 0.0203 nM and the TARC expression IC50 came out at 0.0714 nM. In the assay with human IL13 (human) [3], the Kd stood at 0.145 nM, the koff came out at 0.000218 s⁻¹ and the kon is 1.51e+06 M⁻¹ s⁻¹. In the assay with human IL13 R130Q (human), this molecule returned a concentration for half-maximal inhibition (IC50) of 0.0322 nM.

B3: 5D3 (designed binder, part only; not given: N-cap, C-cap, His tag, part only)
chain, part: B1 chain, part with T1W, M3S, H15E, F34K, F36M
Turning to B3, the Cyno IL13 STAT6 IC50 in assay [1] was determined as 3.02 nM. In the assay with human IL13 (human) [2], this molecule showed an STAT6 Phospho IC50 of 0.0169 nM and a TARC expression IC50 of 0.0883 nM. In the assay with human IL13 (human) [3], this molecule yielded a Kd of 0.164 nM, a koff of 0.000144 s⁻¹ and an on-rate constant (kon) of 877000 M⁻¹ s⁻¹. In addition, the IC50 with human IL13 R130Q (human) amounted to 0.0375 nM.
